The supplement of paper PMC10724198

Legend:
Saccharomyces cerevisiae [1] = experiment: protein stability index of tFT-peptide fusion in wild type (PSI (0-1 scale)); higher = more stable (slower turnover); settings: genetic background: wild type
Experimental: (§1)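 MPS profiling in S. cerevisiae of two library types built from selected 12-aa C-degron peptides (IN1, IN2, LN1, LN3, VN2, R1-R5, W1-W3, Atg1 and Rpa12 C-termini): saturation mutagenesis libraries and C-terminal +1 capping libraries (13 aa). Each peptide is fused to the C-terminus of a sfGFP-mCherry timer, after a GGGS linker. Cells are FACS-sorted into 8 mCherry/sfGFP bins and sequenced. PSI runs from 0 (unstable) to 1 (stable), measured once in wild type and in the das1Δ or doa10Δ background.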

Saccharomyces cerevisiae [2] = experiment: protein stability index of tFT-peptide fusion in deletion strain of DAS1 (PSI (0-1 scale)); higher = more stable (slower turnover)
Experimental: as §1
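Throughout, for protein stability index of tFT-peptide fusion in deletion strain of DAS1: PSI is a weighted mean of each variant's read distribution over the sorted stability bins, computed only for variants having over 10 reads in total.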
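Throughout, for protein stability index of tFT-peptide fusion in wild type: PSI derived as read-weighted mean over the 8 sorting bins, only variants exceeding 10 total reads kept, mCherry placed adjacent to the peptide and sfGFP distal.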

CTSCFYKFRTNN was tested, and the protein stability index (Saccharomyces cerevisiae [1]) was 0.173 and the protein stability index (Saccharomyces cerevisiae [2]) was 0.677.
Work on CTSCGDKFRTNN yielded a protein stability index (Saccharomyces cerevisiae [1]) of 0.48 and a protein stability index (Saccharomyces cerevisiae [2]) of 0.696.
For CTSCGKKFRTNN, the protein stability index (Saccharomyces cerevisiae [1]) was 0.5 and the protein stability index (Saccharomyces cerevisiae [2]) was 0.688.
With CTSCGYKERTNN the protein stability index (Saccharomyces cerevisiae [1]) was 0.632 and the protein stability index (Saccharomyces cerevisiae [2]) was 0.699.
With CTSCGYKFDTNN the protein stability index (Saccharomyces cerevisiae [1]) was 0.667 and the protein stability index (Saccharomyces cerevisiae [2]) was 0.705.
In the case of CTSCGYKFETNN, the protein stability index (Saccharomyces cerevisiae [1]) was 0.656 and the protein stability index (Saccharomyces cerevisiae [2]) was 0.707.
CTSCGYKFKTNN showed a protein stability index (Saccharomyces cerevisiae [1]) of 0.642 and a protein stability index (Saccharomyces cerevisiae [2]) of 0.725.
CTSCGYKFMTNN showed a protein stability index (Saccharomyces cerevisiae [1]) of 0.477 and a protein stability index (Saccharomyces cerevisiae [2]) of 0.676.
With CTSCGYKFRENN the protein stability index (Saccharomyces cerevisiae [1]) was 0.691 and the protein stability index (Saccharomyces cerevisiae [2]) was 0.693.
CTSCGYKFRMNN showed a protein stability index (Saccharomyces cerevisiae [1]) of 0.412 and a protein stability index (Saccharomyces cerevisiae [2]) of 0.686.
Sequence CTSCGYKFRTNG has a protein stability index (Saccharomyces cerevisiae [1]) of 0.399 and a protein stability index (Saccharomyces cerevisiae [2]) of 0.685.
Sequence CTSCGYKFRTNNS has a protein stability index (Saccharomyces cerevisiae [1]) of 0.683 and a protein stability index (Saccharomyces cerevisiae [2]) of 0.7.
In the case of CTSCGYKFRTNNW, the protein stability index (Saccharomyces cerevisiae [1]) was 0.705 and the protein stability index (Saccharomyces cerevisiae [2]) was 0.716.
Sequence CTSCGYKFRTNQ has a protein stability index (Saccharomyces cerevisiae [1]) of 0.498 and a protein stability index (Saccharomyces cerevisiae [2]) of 0.691.
For CTSCGYKFRTNW, the protein stability index (Saccharomyces cerevisiae [1]) was 0.695 and the protein stability index (Saccharomyces cerevisiae [2]) was 0.705.
Work on CTSCGYKMRTNN yielded a protein stability index (Saccharomyces cerevisiae [1]) of 0.227 and a protein stability index (Saccharomyces cerevisiae [2]) of 0.669.
CTSCGYKSRTNN gave a protein stability index (Saccharomyces cerevisiae [1]) of 0.673 and a protein stability index (Saccharomyces cerevisiae [2]) of 0.703.
In the case of CTSCGYNFRTNN, the protein stability index (Saccharomyces cerevisiae [1]) was 0.642 and the protein stability index (Saccharomyces cerevisiae [2]) was 0.704.
Sequence CTSCSYKFRTNN has a protein stability index (Saccharomyces cerevisiae [1]) of 0.267 and a protein stability index (Saccharomyces cerevisiae [2]) of 0.686.
With CTSFGYKFRTNN the protein stability index (Saccharomyces cerevisiae [1]) was 0.127 and the protein stability index (Saccharomyces cerevisiae [2]) was 0.678.
CTSKGYKFRTNN gave a protein stability index (Saccharomyces cerevisiae [1]) of 0.269 and a protein stability index (Saccharomyces cerevisiae [2]) of 0.667.
CTSMGYKFRTNN gave a protein stability index (Saccharomyces cerevisiae [1]) of 0.148 and a protein stability index (Saccharomyces cerevisiae [2]) of 0.689.
In the case of CTSTGYKFRTNN, the protein stability index (Saccharomyces cerevisiae [1]) was 0.214 and the protein stability index (Saccharomyces cerevisiae [2]) was 0.681.
DDKRNHLIKLLN showed a protein stability index (Saccharomyces cerevisiae [1]) of 0.146 and a protein stability index (Saccharomyces cerevisiae [2]) of 0.595.
Sequence DRGAVGGWRLVG has a protein stability index (Saccharomyces cerevisiae [1]) of 0.176 and a protein stability index (Saccharomyces cerevisiae [2]) of 0.655.
With DSMRWTFRYWVN the protein stability index (Saccharomyces cerevisiae [1]) was 0.0763 and the protein stability index (Saccharomyces cerevisiae [2]) was 0.582.
Sequence DVVYLSCVACIN has a protein stability index (Saccharomyces cerevisiae [1]) of 0.0164 and a protein stability index (Saccharomyces cerevisiae [2]) of 0.0312.
EDKRNHLIKLLN was tested, and the protein stability index (Saccharomyces cerevisiae [1]) was 0.078 and the protein stability index (Saccharomyces cerevisiae [2]) was 0.599.
EKILRQKMNHQN was tested, and the protein stability index (Saccharomyces cerevisiae [1]) was 0.137 and the protein stability index (Saccharomyces cerevisiae [2]) was 0.681.
Sequence FSCRWTFRYWVN has a protein stability index (Saccharomyces cerevisiae [1]) of 0.065 and a protein stability index (Saccharomyces cerevisiae [2]) of 0.51.
Work on FSMRWDFRYWVN yielded a protein stability index (Saccharomyces cerevisiae [1]) of 0.0502 and a protein stability index (Saccharomyces cerevisiae [2]) of 0.585.
Work on FSMRWGFRYWVN yielded a protein stability index (Saccharomyces cerevisiae [1]) of 0.0673 and a protein stability index (Saccharomyces cerevisiae [2]) of 0.646.
FSMRWTFRHWVN was tested, and the protein stability index (Saccharomyces cerevisiae [1]) was 0.0837 and the protein stability index (Saccharomyces cerevisiae [2]) was 0.625.
FSMRWTFRYRVN gave a protein stability index (Saccharomyces cerevisiae [1]) of 0.059 and a protein stability index (Saccharomyces cerevisiae [2]) of 0.586.
With FSMRWTFRYSVN the protein stability index (Saccharomyces cerevisiae [1]) was 0.154 and the protein stability index (Saccharomyces cerevisiae [2]) was 0.53.
FSMRWTFRYTVN gave a protein stability index (Saccharomyces cerevisiae [1]) of 0.0631 and a protein stability index (Saccharomyces cerevisiae [2]) of 0.476.
FSMRWTFRYWEN gave a protein stability index (Saccharomyces cerevisiae [1]) of 0.5 and a protein stability index (Saccharomyces cerevisiae [2]) of 0.54.
FSMRWTFRYWQN gave a protein stability index (Saccharomyces cerevisiae [1]) of 0.106 and a protein stability index (Saccharomyces cerevisiae [2]) of 0.614.
FSMRWTFRYWVA was tested, and the protein stability index (Saccharomyces cerevisiae [1]) was 0.202 and the protein stability index (Saccharomyces cerevisiae [2]) was 0.545.
FSMRWTFRYWVK gave a protein stability index (Saccharomyces cerevisiae [1]) of 0.49 and a protein stability index (Saccharomyces cerevisiae [2]) of 0.45.
FSMRWTFRYWVL was tested, and the protein stability index (Saccharomyces cerevisiae [1]) was 0.0913 and the protein stability index (Saccharomyces cerevisiae [2]) was 0.457.
Sequence FSMRWTFRYWVNY has a protein stability index (Saccharomyces cerevisiae [1]) of 0.114 and a protein stability index (Saccharomyces cerevisiae [2]) of 0.471.
With FSMRWTFSYWVN the protein stability index (Saccharomyces cerevisiae [1]) was 0.0568 and the protein stability index (Saccharomyces cerevisiae [2]) was 0.497.
Sequence FSMRWTGRYWVN has a protein stability index (Saccharomyces cerevisiae [1]) of 0.0626 and a protein stability index (Saccharomyces cerevisiae [2]) of 0.587.
FSMRWYFRYWVN was tested, and the protein stability index (Saccharomyces cerevisiae [1]) was 0.059 and the protein stability index (Saccharomyces cerevisiae [2]) was 0.526.
With FSYRWTFRYWVN the protein stability index (Saccharomyces cerevisiae [1]) was 0.0328 and the protein stability index (Saccharomyces cerevisiae [2]) was 0.53.
FTSCGYKFRTNN was tested, and the protein stability index (Saccharomyces cerevisiae [1]) was 0.207 and the protein stability index (Saccharomyces cerevisiae [2]) was 0.676.
In the case of FVMRWTFRYWVN, the protein stability index (Saccharomyces cerevisiae [1]) was 0.0377 and the protein stability index (Saccharomyces cerevisiae [2]) was 0.272.
Sequence ILIQPLPVQFLN has a protein stability index (Saccharomyces cerevisiae [1]) of 0.093 and a protein stability index (Saccharomyces cerevisiae [2]) of 0.59.
With ISLAASFWRVVG the protein stability index (Saccharomyces cerevisiae [1]) was 0.109 and the protein stability index (Saccharomyces cerevisiae [2]) was 0.663.
For ISMRWTFRYWVN, the protein stability index (Saccharomyces cerevisiae [1]) was 0.059 and the protein stability index (Saccharomyces cerevisiae [2]) was 0.481.
Sequence KIHKKGQKQKIN has a protein stability index (Saccharomyces cerevisiae [1]) of 0.0466 and a protein stability index (Saccharomyces cerevisiae [2]) of 0.494.
Sequence KKHKDGQKQKIN has a protein stability index (Saccharomyces cerevisiae [1]) of 0.0686 and a protein stability index (Saccharomyces cerevisiae [2]) of 0.602.
KKHKEGQKQKIN was tested, and the protein stability index (Saccharomyces cerevisiae [1]) was 0.12 and the protein stability index (Saccharomyces cerevisiae [2]) was 0.581.
With KKHKHGQKQKIN the protein stability index (Saccharomyces cerevisiae [1]) was 0.0725 and the protein stability index (Saccharomyces cerevisiae [2]) was 0.637.
KKHKKGFKQKIN was tested, and the protein stability index (Saccharomyces cerevisiae [1]) was 0.0758 and the protein stability index (Saccharomyces cerevisiae [2]) was 0.589.
For KKHKKGQDQKIN, the protein stability index (Saccharomyces cerevisiae [1]) was 0.616 and the protein stability index (Saccharomyces cerevisiae [2]) was 0.574.
KKHKKGQKEKIN was tested, and the protein stability index (Saccharomyces cerevisiae [1]) was 0.124 and the protein stability index (Saccharomyces cerevisiae [2]) was 0.606.
KKHKKGQKQGIN gave a protein stability index (Saccharomyces cerevisiae [1]) of 0.703 and a protein stability index (Saccharomyces cerevisiae [2]) of 0.606.
KKHKKGQKQKIA gave a protein stability index (Saccharomyces cerevisiae [1]) of 0.128 and a protein stability index (Saccharomyces cerevisiae [2]) of 0.597.
KKHKKGQKQKIND was tested, and the protein stability index (Saccharomyces cerevisiae [1]) was 0.666 and the protein stability index (Saccharomyces cerevisiae [2]) was 0.658.
KKHKKGQKQKINH showed a protein stability index (Saccharomyces cerevisiae [1]) of 0.653 and a protein stability index (Saccharomyces cerevisiae [2]) of 0.668.
Work on KKHKKGQKQKINW yielded a protein stability index (Saccharomyces cerevisiae [1]) of 0.643 and a protein stability index (Saccharomyces cerevisiae [2]) of 0.657.
In the case of KKHKKGQPQKIN, the protein stability index (Saccharomyces cerevisiae [1]) was 0.0925 and the protein stability index (Saccharomyces cerevisiae [2]) was 0.6.
KKHKKKQKQKIN was tested, and the protein stability index (Saccharomyces cerevisiae [1]) was 0.0427 and the protein stability index (Saccharomyces cerevisiae [2]) was 0.593.
KKHKNGQKQKIN gave a protein stability index (Saccharomyces cerevisiae [1]) of 0.145 and a protein stability index (Saccharomyces cerevisiae [2]) of 0.622.
KKHKSGQKQKIN gave a protein stability index (Saccharomyces cerevisiae [1]) of 0.106 and a protein stability index (Saccharomyces cerevisiae [2]) of 0.603.
With KKHYKGQKQKIN the protein stability index (Saccharomyces cerevisiae [1]) was 0.0621 and the protein stability index (Saccharomyces cerevisiae [2]) was 0.618.
For KKRKKGQKQKIN, the protein stability index (Saccharomyces cerevisiae [1]) was 0.111 and the protein stability index (Saccharomyces cerevisiae [2]) was 0.571.
KKYKKGQKQKIN gave a protein stability index (Saccharomyces cerevisiae [1]) of 0.0672 and a protein stability index (Saccharomyces cerevisiae [2]) of 0.613.
With KLIQPLPVQFLN the protein stability index (Saccharomyces cerevisiae [1]) was 0.0526 and the protein stability index (Saccharomyces cerevisiae [2]) was 0.574.
KRWRVGLWRGAS showed a protein stability index (Saccharomyces cerevisiae [1]) of 0.443 and a protein stability index (Saccharomyces cerevisiae [2]) of 0.681.
Work on LGVYLSCVACIN yielded a protein stability index (Saccharomyces cerevisiae [1]) of 0.0766 and a protein stability index (Saccharomyces cerevisiae [2]) of 0.166.
In the case of LKDLRQKMNHQN, the protein stability index (Saccharomyces cerevisiae [1]) was 0.192 and the protein stability index (Saccharomyces cerevisiae [2]) was 0.671.
For LKIERQKMNHQN, the protein stability index (Saccharomyces cerevisiae [1]) was 0.333 and the protein stability index (Saccharomyces cerevisiae [2]) was 0.682.
For LKILEQKMNHQN, the protein stability index (Saccharomyces cerevisiae [1]) was 0.473 and the protein stability index (Saccharomyces cerevisiae [2]) was 0.66.
LKILHQKMNHQN gave a protein stability index (Saccharomyces cerevisiae [1]) of 0.293 and a protein stability index (Saccharomyces cerevisiae [2]) of 0.645.
LKILLQKMNHQN was tested, and the protein stability index (Saccharomyces cerevisiae [1]) was 0.249 and the protein stability index (Saccharomyces cerevisiae [2]) was 0.678.
With LKILREKMNHQN the protein stability index (Saccharomyces cerevisiae [1]) was 0.183 and the protein stability index (Saccharomyces cerevisiae [2]) was 0.678.
In the case of LKILRQEMNHQN, the protein stability index (Saccharomyces cerevisiae [1]) was 0.437 and the protein stability index (Saccharomyces cerevisiae [2]) was 0.672.
For LKILRQKENHQN, the protein stability index (Saccharomyces cerevisiae [1]) was 0.365 and the protein stability index (Saccharomyces cerevisiae [2]) was 0.681.
Sequence LKILRQKMHHQN has a protein stability index (Saccharomyces cerevisiae [1]) of 0.231 and a protein stability index (Saccharomyces cerevisiae [2]) of 0.706.
LKILRQKMNDQN gave a protein stability index (Saccharomyces cerevisiae [1]) of 0.552 and a protein stability index (Saccharomyces cerevisiae [2]) of 0.687.
LKILRQKMNHNN was tested, and the protein stability index (Saccharomyces cerevisiae [1]) was 0.239 and the protein stability index (Saccharomyces cerevisiae [2]) was 0.688.
In the case of LKILRQKMNHQA, the protein stability index (Saccharomyces cerevisiae [1]) was 0.19 and the protein stability index (Saccharomyces cerevisiae [2]) was 0.629.
In the case of LKILRQKMNHQNF, the protein stability index (Saccharomyces cerevisiae [1]) was 0.616 and the protein stability index (Saccharomyces cerevisiae [2]) was 0.698.
With LKILRQKMNHQNH the protein stability index (Saccharomyces cerevisiae [1]) was 0.655 and the protein stability index (Saccharomyces cerevisiae [2]) was 0.69.
In the case of LKILRQKMNHQS, the protein stability index (Saccharomyces cerevisiae [1]) was 0.23 and the protein stability index (Saccharomyces cerevisiae [2]) was 0.68.
Work on LKILRQKMNHRN yielded a protein stability index (Saccharomyces cerevisiae [1]) of 0.493 and a protein stability index (Saccharomyces cerevisiae [2]) of 0.653.
